Patent US20160250307A1 (IMMATICS BIOTECHNOLOGIES, published 2016)
Square brackets hold non-standard residues; d marks the D form. Ends that are not written are not given here. pS = N[C@@H](COP(=O)(O)O)C(=O)O

Target: HLA-A*02 (human)
Test: UV-ligand exchange, anti-b2m ELISA; grade: exchange yield >=50%

For YIFTTPKSV, which peptide exchange yield is on record?
The peptide exchange yield was 50 to 75%.

VLYPSLKEI was tested. Which peptide exchange yield did it give?
Its peptide exchange yield is 50 to 75%.

ALDPKANFST was tested. Which peptide exchange yield did it give?
The peptide exchange yield was 50 to 75%.

Which peptide exchange yield does the source give for GLLDNPELRV here?
The peptide exchange yield was 50 to 75%.

For SLFSSPPEI, which peptide exchange yield is on record?
The peptide exchange yield was 50 to 75%.

Which peptide exchange yield does the source give for ALFPALRPGGFQA here?
Its peptide exchange yield is 50 to 75%.

How did the peptide exchange yield turn out when ALADVVHEA was run?
Its peptide exchange yield is 50 to 75%.

ATLNIIHSV was tested. Which peptide exchange yield did it give?
Its peptide exchange yield is 50 to 75%.

For VLLAQIIQV, which peptide exchange yield is on record?
Its peptide exchange yield is 50 to 75%.

TLFYSLREV was tested. Which peptide exchange yield did it give?
Its peptide exchange yield is 50 to 75%.

Which peptide exchange yield does the source give for TLAELGAVQV here?
Its peptide exchange yield is 50 to 75%.

How did the peptide exchange yield turn out when SLFGQDVKAV was run?
Its peptide exchange yield is 50 to 75%.

For SLAEGTATV, which peptide exchange yield is on record?
Its peptide exchange yield is 50 to 75%.

For SLLESNKDLLL, which peptide exchange yield is on record?
Its peptide exchange yield is 50 to 75%.

Which peptide exchange yield does the source give for YLLEKFVAV here?
Its peptide exchange yield is 50 to 75%.

For SLFQGVEFHYV, which peptide exchange yield is on record?
Its peptide exchange yield is 50 to 75%.

RTIEYLEEV was tested. Which peptide exchange yield did it give?
Its peptide exchange yield is 50 to 75%.

ALLEENSTPQL was tested. Which peptide exchange yield did it give?
Its peptide exchange yield is 50 to 75%.

With KLNDLIQRL as the binder, how does the peptide exchange yield read?
The peptide exchange yield was 50 to 75%.

For ALLRVTPFI, which peptide exchange yield is on record?
Its peptide exchange yield is 50 to 75%.

Which peptide exchange yield does the source give for VVLDGGQIVTV here?
Its peptide exchange yield is 50 to 75%.

For ALIEGAGILL, which peptide exchange yield is on record?
Its peptide exchange yield is 50 to 75%.

Which peptide exchange yield does the source give for FLLEQPEIQV here?
The peptide exchange yield was 50 to 75%.

KLISSYYNV was tested. Which peptide exchange yield did it give?
Its peptide exchange yield is 50 to 75%.

Which peptide exchange yield does the source give for FLLGFIPAKA here?
The peptide exchange yield was 50 to 75%.

ALANQKLYSV was tested. Which peptide exchange yield did it give?
The peptide exchange yield was 50 to 75%.

For ALNENINQV, which peptide exchange yield is on record?
Its peptide exchange yield is 50 to 75%.

How did the peptide exchange yield turn out when FLWERPTLLV was run?
Its peptide exchange yield is 50 to 75%.

YLGEGPRMV was tested. Which peptide exchange yield did it give?
The peptide exchange yield was 50 to 75%.

SLQESILAQV was tested. Which peptide exchange yield did it give?
The peptide exchange yield was 50 to 75%.

For AILETAPKEV, which peptide exchange yield is on record?
The peptide exchange yield was 50 to 75%.

How did the peptide exchange yield turn out when SLLNFLQHL was run?
The peptide exchange yield was 50 to 75%.

How did the peptide exchange yield turn out when ALADKELLPSV was run?
Its peptide exchange yield is 50 to 75%.

How did the peptide exchange yield turn out when SLMGPVVHEV was run?
The peptide exchange yield was 50 to 75%.

How did the peptide exchange yield turn out when ALLAEGITWV was run?
Its peptide exchange yield is 50 to 75%.

Which peptide exchange yield does the source give for VLPNFLPYNV here?
The peptide exchange yield was 50 to 75%.

Which peptide exchange yield does the source give for GQFPSYLETV here?
The peptide exchange yield was 50 to 75%.

For SVLDQKILL, which peptide exchange yield is on record?
The peptide exchange yield was 50 to 75%.

For TLMDMRLSQV, which peptide exchange yield is on record?
The peptide exchange yield was 50 to 75%.

With ALLGGNVRMML as the binder, how does the peptide exchange yield read?
The peptide exchange yield was 50 to 75%.

Which peptide exchange yield does the source give for GLFNAELLEA here?
The peptide exchange yield was 50 to 75%.

For RLYDPASGTISL, which peptide exchange yield is on record?
Its peptide exchange yield is 50 to 75%.

RVA[pS]PTSGV (phosphopeptide from IRS2) [RVAS*PTSGV] was tested. Which peptide exchange yield did it give?
Its peptide exchange yield is 50 to 75%.

For ALYGKTEVV, which peptide exchange yield is on record?
Its peptide exchange yield is 50 to 75%.

FLEETKATV was tested. Which peptide exchange yield did it give?
Its peptide exchange yield is 50 to 75%.

VLDEPYEKV was tested. Which peptide exchange yield did it give?
The peptide exchange yield was 50 to 75%.

How did the peptide exchange yield turn out when ILSGIGVSQV was run?
The peptide exchange yield was 50 to 75%.

How did the peptide exchange yield turn out when ILDDNMQKL was run?
The peptide exchange yield was 50 to 75%.

Which peptide exchange yield does the source give for AMAEMKVVL here?
Its peptide exchange yield is 50 to 75%.

QLIDYERQL was tested. Which peptide exchange yield did it give?
The peptide exchange yield was 50 to 75%.

YLMEGSYNKV was tested. Which peptide exchange yield did it give?
The peptide exchange yield was 50 to 75%.

With GLLAGDRLVEV as the binder, how does the peptide exchange yield read?
The peptide exchange yield was 50 to 75%.

With RVQEAIAEV as the binder, how does the peptide exchange yield read?
Its peptide exchange yield is 50 to 75%.

How did the peptide exchange yield turn out when YIQDEINTI was run?
The peptide exchange yield was 50 to 75%.

For VLFQEALWHV, which peptide exchange yield is on record?
The peptide exchange yield was 50 to 75%.

GLFAPVHKV was tested. Which peptide exchange yield did it give?
Its peptide exchange yield is 50 to 75%.

How did the peptide exchange yield turn out when KLDAFVEGV was run?
Its peptide exchange yield is 50 to 75%.

Which peptide exchange yield does the source give for TLFEHLPHI here?
The peptide exchange yield was 50 to 75%.

How did the peptide exchange yield turn out when KMFESFIESV was run?
Its peptide exchange yield is 50 to 75%.

LLLPLLPPLSP was tested. Which peptide exchange yield did it give?
Its peptide exchange yield is 50 to 75%.

Which peptide exchange yield does the source give for ALRGEIETV here?
The peptide exchange yield was 50 to 75%.

For YQMDIQQEL, which peptide exchange yield is on record?
Its peptide exchange yield is 50 to 75%.

How did the peptide exchange yield turn out when ILNVDGLIGV was run?
Its peptide exchange yield is 50 to 75%.

For SLLEKAGPEL, which peptide exchange yield is on record?
Its peptide exchange yield is 50 to 75%.

How did the peptide exchange yield turn out when YLGPHIASVTL was run?
The peptide exchange yield was 50 to 75%.

How did the peptide exchange yield turn out when YLLHFPMAL was run?
Its peptide exchange yield is 50 to 75%.

SLLHTIYEV was tested. Which peptide exchange yield did it give?
Its peptide exchange yield is 50 to 75%.

For SLLSGRISTL, which peptide exchange yield is on record?
Its peptide exchange yield is 50 to 75%.

With SLAEEKLQASV as the binder, how does the peptide exchange yield read?
Its peptide exchange yield is 50 to 75%.

How did the peptide exchange yield turn out when QQLDSKFLEQV was run?
Its peptide exchange yield is 50 to 75%.

With SLDGKAALTEL as the binder, how does the peptide exchange yield read?
The peptide exchange yield was 50 to 75%.

LLDDSLVSI was tested. Which peptide exchange yield did it give?
Its peptide exchange yield is 50 to 75%.

TLQDHLNSL was tested. Which peptide exchange yield did it give?
Its peptide exchange yield is 50 to 75%.

With KLLDLSDSTSV as the binder, how does the peptide exchange yield read?
The peptide exchange yield was 50 to 75%.

With LLHGHIVEL as the binder, how does the peptide exchange yield read?
The peptide exchange yield was 50 to 75%.
